Data reported in paper PMC6442461 (2020).

Target: T1, cytochrome f soluble domain lacking the transmembrane helix (Nostoc sp. PCC 7119, UniProt Q93SW9)
T1 chain: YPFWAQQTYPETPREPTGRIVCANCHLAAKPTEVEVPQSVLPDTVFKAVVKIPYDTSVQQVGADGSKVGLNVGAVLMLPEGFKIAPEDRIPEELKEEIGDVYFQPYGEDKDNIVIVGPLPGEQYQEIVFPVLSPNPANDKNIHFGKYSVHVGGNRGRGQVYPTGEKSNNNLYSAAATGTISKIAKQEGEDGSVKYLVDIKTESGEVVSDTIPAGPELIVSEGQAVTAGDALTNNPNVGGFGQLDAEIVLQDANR
Assay: fluorescence titration

B1: plastocyanin (protein)
chain: ETYTVKLGSDKGLLVFEPAKLTIKPGDTVEFLNNKVPPHNVVFDAALNPAKSADLAKSLSHKQLLMSPGQSTSTTFPADAPAGEYTFYCEPHRGAGMVGKITVAG
Kd: 70 µM
